Experimental data published in patent US20250250357A1.

Key:
[1] = molecular target: monkey MSLN full-length protein (NCBI: XP_028696439.1) on HEK293T cells (monkey); experiment: FACS on HEK293T-monkey MSLN cells; antibody 4 nM
[2] = molecular target: human MSLN full-length protein (NCBI: AAH09272.1) on stably transfected CHO-K1 or HEK293T cells (human) (UniProt Q13421); experiment: FACS on CHO-K1-hMSLN-2C8 cells; antibody […]
[3] = molecular target: human MSLN protein, endogenously expressed on Hela and OVCAR3 cells (human) (UniProt Q13421); experiment: FACS on OVCAR3 cells; antibody […]
Sequence of human MSLN protein, endogenously expressed on Hela and OVCAR3 cells (human) (Q13421 other isoform, or with tags, fused parts or gaps): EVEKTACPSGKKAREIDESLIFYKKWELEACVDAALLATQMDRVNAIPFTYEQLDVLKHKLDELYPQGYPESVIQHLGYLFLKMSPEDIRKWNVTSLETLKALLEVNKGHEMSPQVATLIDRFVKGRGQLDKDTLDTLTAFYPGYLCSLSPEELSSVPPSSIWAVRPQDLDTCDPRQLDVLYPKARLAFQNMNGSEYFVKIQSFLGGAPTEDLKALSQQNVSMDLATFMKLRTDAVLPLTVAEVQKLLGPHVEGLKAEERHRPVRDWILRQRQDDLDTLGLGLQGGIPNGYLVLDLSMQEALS

[4] = molecular target: human MSLN full-length protein (NCBI: AAH09272.1) on stably transfected CHO-K1 or HEK293T cells (human) (UniProt Q13421); experiment: FACS on CHO-K1-hMSLN-2C8 cells; antibody 20 nM
[5] = molecular target: human MSLN protein, endogenously expressed on Hela and OVCAR3 cells (human) (UniProt Q13421); experiment: FACS on OVCAR3 cells; antibody 0.8 nM
[6] = molecular target: human MSLN protein, endogenously expressed on Hela and OVCAR3 cells (human) (UniProt Q13421); experiment: FACS on OVCAR3 cells; antibody 0.00128 nM
[7] = molecular target: human MSLN full-length protein (NCBI: AAH09272.1) on stably transfected CHO-K1 or HEK293T cells (human) (UniProt Q13421); experiment: FACS on CHO-K1-hMSLN-2C8 cells; antibody 0.032 nM
[8] = molecular target: human MSLN protein, endogenously expressed on Hela and OVCAR3 cells (human) (UniProt Q13421); experiment: FACS on OVCAR3 cells; antibody 4 nM
[9] = molecular target: monkey MSLN full-length protein (NCBI: XP_028696439.1) on HEK293T cells (monkey); experiment: FACS on HEK293T-monkey MSLN cells; antibody […]
[10] = molecular target: human MSLN full-length protein (NCBI: AAH09272.1) on stably transfected CHO-K1 or HEK293T cells (human) (UniProt Q13421); experiment: FACS on CHO-K1-hMSLN-2C8 cells; antibody 0.00128 nM
[11] = molecular target: monkey MSLN full-length protein (NCBI: XP_028696439.1) on HEK293T cells (monkey); experiment: FACS on HEK293T-monkey MSLN cells; antibody 0.00128 nM
[12] = molecular target: human MSLN protein, endogenously expressed on Hela and OVCAR3 cells (human) (UniProt Q13421); experiment: FACS on OVCAR3 cells; antibody 0.032 nM
[13] = molecular target: human MSLN full-length protein (NCBI: AAH09272.1) on stably transfected CHO-K1 or HEK293T cells (human) (UniProt Q13421); experiment: FACS on CHO-K1-hMSLN-2C8 cells; antibody 0.0064 nM
[14] = molecular target: human MSLN full-length protein (NCBI: AAH09272.1) on stably transfected CHO-K1 or HEK293T cells (human) (UniProt Q13421); experiment: FACS on CHO-K1-hMSLN-2C8 cells; antibody 4 nM
[15] = molecular target: human MSLN protein, endogenously expressed on Hela and OVCAR3 cells (human) (UniProt Q13421); experiment: FACS on OVCAR3 cells; antibody 100 nM
[16] = molecular target: human MSLN protein, endogenously expressed on Hela and OVCAR3 cells (human) (UniProt Q13421); experiment: FACS on OVCAR3 cells; antibody 0.0064 nM
[17] = molecular target: monkey MSLN full-length protein (NCBI: XP_028696439.1) on HEK293T cells (monkey); experiment: FACS on HEK293T-monkey MSLN cells; antibody 0.032 nM
[18] = molecular target: monkey MSLN full-length protein (NCBI: XP_028696439.1) on HEK293T cells (monkey); experiment: FACS on HEK293T-monkey MSLN cells; antibody 0.8 nM
[19] = molecular target: human MSLN-R3-3 polypeptide (human); experiment: ELISA; antibody 1 nM
[20] = molecular target: monkey MSLN full-length protein (NCBI: XP_028696439.1) on HEK293T cells (monkey); experiment: FACS on HEK293T-monkey MSLN cells; antibody 0.0064 nM
[21] = molecular target: monkey MSLN full-length protein (NCBI: XP_028696439.1) on HEK293T cells (monkey); experiment: FACS on HEK293T-monkey MSLN cells; antibody 20 nM
[22] = molecular target: monkey MSLN full-length protein (NCBI: XP_028696439.1) on HEK293T cells (monkey); experiment: FACS on HEK293T-monkey MSLN cells; antibody 100 nM
[23] = molecular target: human MSLN full-length protein (NCBI: AAH09272.1) on stably transfected CHO-K1 or HEK293T cells (human) (UniProt Q13421); experiment: FACS on CHO-K1-hMSLN-2C8 cells; antibody 100 nM
[24] = molecular target: human MSLN full-length protein (NCBI: AAH09272.1) on stably transfected CHO-K1 or HEK293T cells (human) (UniProt Q13421); experiment: FACS on CHO-K1-hMSLN-2C8 cells; antibody 0.8 nM
[25] = molecular target: human MSLN protein, endogenously expressed on Hela and OVCAR3 cells (human) (UniProt Q13421); experiment: FACS on OVCAR3 cells; antibody 20 nM
[26] = molecular target: human MSLN-R2-his protein (human) (UniProt Q13421); experiment: ELISA, coated MSLN-R2
Sequence of human MSLN-R2-his protein (human) (Q13421 other isoform, or with tags, fused parts or gaps): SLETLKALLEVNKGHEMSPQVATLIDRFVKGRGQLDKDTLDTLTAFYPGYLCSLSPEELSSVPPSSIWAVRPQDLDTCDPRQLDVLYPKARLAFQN

[27] = molecular target: human MSLN-R3-3 polypeptide (human); experiment: ELISA on coated antigen, antibody 0.1 nM
[28] = molecular target: human MSLN-FL-his protein (human) (UniProt Q13421); experiment: ELISA on coated antigen, antibody 0.1 nM
Sequence of human MSLN-FL-his protein (human) (Q13421 other isoform, or with tags, fused parts or gaps): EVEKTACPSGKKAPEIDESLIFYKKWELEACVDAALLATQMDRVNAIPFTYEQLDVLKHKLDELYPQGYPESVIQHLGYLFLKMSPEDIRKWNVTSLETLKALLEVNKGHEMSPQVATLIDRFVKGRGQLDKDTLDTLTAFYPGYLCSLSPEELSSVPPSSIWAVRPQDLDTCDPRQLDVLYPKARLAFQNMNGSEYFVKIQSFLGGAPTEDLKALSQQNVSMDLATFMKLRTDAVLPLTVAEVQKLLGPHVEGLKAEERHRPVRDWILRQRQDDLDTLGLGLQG

[29] = molecular target: human MSLN-R3-3 polypeptide (human); experiment: ELISA, coated antigen; antibody 0.0001 nM
[30] = molecular target: human MSLN-FL-his protein (human) (UniProt Q13421); experiment: ELISA on coated antigen, no antibody (blank, column 'none')
[31] = molecular target: human MSLN-R3-3 polypeptide (human); experiment: ELISA on coated antigen, antibody 10 nM
[32] = molecular target: human MSLN-R3-3 polypeptide (human); experiment: ELISA on coated antigen, antibody 0.001 nM
[33] = molecular target: human MSLN-R3-3 polypeptide (human); experiment: ELISA on coated antigen, antibody 0.01 nM
[34] = molecular target: human MSLN-FL-his protein (human) (UniProt Q13421); experiment: ELISA on coated antigen, antibody 0.01 nM
[35] = molecular target: human MSLN-R3-3 polypeptide (human); experiment: ELISA on coated antigen, antibody 100 nM
[36] = molecular target: human MSLN-FL-his protein (human) (UniProt Q13421); experiment: ELISA on coated antigen, antibody 100 nM
[37] = molecular target: human MSLN-R3-3 polypeptide (human); experiment: ELISA, coated antigen; antibody 0.001 nM
[38] = molecular target: human MSLN-R3-3 polypeptide (human); experiment: ELISA on coated antigen, antibody 1 nM
[39] = molecular target: human MSLN-FL-his protein (human) (UniProt Q13421); experiment: ELISA on coated antigen, antibody 1 nM
[40] = molecular target: human MSLN-R3-3 polypeptide (human); experiment: ELISA, coated MSLN-R3-3
[41] = molecular target: human MSLN-R3-3 polypeptide (human); experiment: ELISA on coated antigen, antibody 0.0001 nM
[42] = molecular target: human MSLN-R3-3 polypeptide (human); experiment: ELISA on coated antigen, no antibody (column none)
[43] = molecular target: human MSLN-R2-his protein (human) (UniProt Q13421); experiment: ELISA on coated antigen, antibody 0.0002 nM
[44] = molecular target: human MSLN-R3-his protein (human) (UniProt Q13421); experiment: ELISA on coated antigen, antibody 0.0002 nM
Sequence of human MSLN-R3-his protein (human) (Q13421 495-606): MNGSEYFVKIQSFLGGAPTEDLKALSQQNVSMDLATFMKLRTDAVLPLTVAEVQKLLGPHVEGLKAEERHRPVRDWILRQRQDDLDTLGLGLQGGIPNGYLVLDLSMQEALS

[45] = molecular target: human MSLN-R3-3 polypeptide (human); experiment: ELISA, coated antigen; no antibody (blank, column 'none')

hIgG1 (human IgG1 subtype control of Example 1) (antibody)
FACS fluorescence intensity [1]: 85 | FACS fluorescence intensity [2]: 59 | FACS fluorescence intensity [3]: 74 | FACS fluorescence intensity [4]: 156 | FACS fluorescence intensity [5]: 76 | FACS fluorescence intensity [6]: 75 | FACS fluorescence intensity [7]: 59 | FACS fluorescence intensity [8]: 74 | FACS fluorescence intensity [9]: 85 | FACS fluorescence intensity [10]: 116 | FACS fluorescence intensity [11]: 84 | FACS fluorescence intensity [12]: 75 | FACS fluorescence intensity [13]: 65 | FACS fluorescence intensity [14]: 110 | FACS fluorescence intensity [15]: 93 | FACS fluorescence intensity [16]: 74 | FACS fluorescence intensity [17]: 125 | FACS fluorescence intensity [18]: 87 | OD450 nm [19]: 0.06 | FACS fluorescence intensity [20]: 85 | FACS fluorescence intensity [21]: 84 | FACS fluorescence intensity [22]: 127 | FACS fluorescence intensity [23]: 72 | FACS fluorescence intensity [24]: 80 | FACS fluorescence intensity [25]: 78

Tab108 (YP218, scFv-hIgG1 Fc) (Fc fusion)
OD450 at 0.0001 nM [26]: 0.03 OD450

anti-hel-hIgG1 (antibody)
OD450 [27]: 0.05 OD450 | OD450 [28]: 0.04 OD | OD450 [29]: 0.07 OD450 | OD450 [30]: 0.04 OD | OD450 [31]: 0.05 OD450 | OD450 [32]: 0.05 OD450 | OD450 [33]: 0.05 OD450 | OD450 [34]: 0.04 OD | OD450 [35]: 0.06 OD450 | OD450 [36]: 0.1 OD450 | OD450 [37]: 0.08 OD450 | OD450 [38]: 0.05 OD450 | OD450 [39]: 0.04 OD | OD450 at 0.0001 nM [40]: 0.07 OD450 | OD450 at 0.001 nM [40]: 0.07 OD450 | OD450 at 0.01 nM [40]: 0.06 OD450 | OD450 at 0.1 nM [40]: 0.06 OD450 | OD450 at 1 nM [40]: 0.06 OD450 | OD450 at 10 nM [40]: 0.07 OD450 | OD450 at none (no antibody) [40]: 0.08 OD450 | OD450 [41]: 0.05 OD450 | OD450 [42]: 0.05 OD450 | OD450 [43]: 0.52 OD | OD450 [44]: 0.33 OD | OD450 [45]: 0.07 OD450
